Data as given in publication PMC6582323 (Nucleic Acids Research, 2019).

Tests used:
crystal structure = biological target: the molecule itself; test: crystal structure
[1] = biological target: T1, Cyanothece PCC7424 McdA(D38A) (Cyanothece sp. PCC 7424, UniProt B7KMS4 1-258, D38A); test: fluorescence polarisation
T1 sequence (looked up): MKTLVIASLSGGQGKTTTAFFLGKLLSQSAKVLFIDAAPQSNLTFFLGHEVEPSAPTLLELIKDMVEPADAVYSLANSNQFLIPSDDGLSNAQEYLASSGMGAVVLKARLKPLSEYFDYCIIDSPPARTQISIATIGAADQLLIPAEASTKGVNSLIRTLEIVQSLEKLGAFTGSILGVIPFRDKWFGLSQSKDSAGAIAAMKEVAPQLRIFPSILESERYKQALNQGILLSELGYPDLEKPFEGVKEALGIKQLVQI

Kd [1]: 1100 nM
B1: Cyanothece PCC7424 McdB (wild type) (natural protein, Cyanothece sp. PCC 7424, UniProt B7KMS5 1-156, looked up)
chain: MSNNALDRLINKQKPKVPPRNDVVSESVSNDIKTQGQQELNTSLPPSDTKATPEEMPTSHESETSLSQDQKPKLSPDTFETVRNTIRIESEVDESLRQLCHEERITKETWLEAAYLYLCEKPEELAQVIQLAQERLSQRKAIADYKRAKTMQERFL
stoichiometry N (crystal structure): 2
